These results are taken from article PMC12420824, “Discovery of a selective alpha-kinase 1 inhibitor for the rare genetic disease ROSAH syndrome” (Nature Communications, 2025).

Data set [1] deals with the molecule itself. In words: AlphaScreen or HTRF; TR-FRET after kinase reaction (260 nM HA-His-TIFA, 2 nM ALPK1, 6.25 uM ATP, 20 nM ADP-D-heptose, 1.5 h, 27 °C); anti-HA-Eu cryptate and anti-HA-d2 bound to the same TIFA oligomer, 26 °C for 1 h. (Alpha assays give light when donor and acceptor beads are brought close together.)
The target in data set [2] is T1, human ALPK1 N-terminal regulatory domain aa. 1-446 (human, UniProt Q96QP1-1 1-446).
T1 construct: The sentence names the His-TEV tag before the mouse kinase domain; it is read here as applying to both constructs; also called ALPK1-ND; human N-terminal regulatory domain; source: E. coli, purified (Ni column; His-tag cleaved with TEV protease)
In words: crystal structure; mALPK1-KD and ALPK1-ND mixed, complex purified by size exclusion chromatography, 10 mg/ml; hanging drop vapor diffusion, 12% PEG 3350, 0.1 M CBTP pH 8.2. As to conditions: both partners purified. On the technique in general: In gel filtration, larger molecules generally elute earlier.

T1 sequence (Q96QP1 1-446): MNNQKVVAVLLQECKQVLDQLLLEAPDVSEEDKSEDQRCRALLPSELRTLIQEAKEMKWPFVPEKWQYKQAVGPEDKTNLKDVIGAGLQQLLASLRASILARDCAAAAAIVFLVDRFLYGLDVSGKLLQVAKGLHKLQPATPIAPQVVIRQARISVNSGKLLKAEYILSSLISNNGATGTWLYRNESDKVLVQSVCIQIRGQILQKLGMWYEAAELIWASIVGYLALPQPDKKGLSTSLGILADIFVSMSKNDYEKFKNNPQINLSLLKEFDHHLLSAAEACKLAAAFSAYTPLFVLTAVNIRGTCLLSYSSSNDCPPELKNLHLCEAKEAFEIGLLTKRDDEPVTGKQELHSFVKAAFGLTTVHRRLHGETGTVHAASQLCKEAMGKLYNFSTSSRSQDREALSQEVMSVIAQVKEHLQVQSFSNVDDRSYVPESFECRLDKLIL

B1: recombinant HA-His-tagged TIFA, phosphorylated by ALPK1 (natural protein, human, UniProt Q96CG3 1-184, looked up)
chain: MTSFEDADTEETVTCLQMTVYHPGQLQCGIFQSISFNREKLPSSEVVKFGRNSNICHYTFQDKQVSRVQFSLQLFKKFNSSVLSFEIKNMSKKTNLIVDSRELGYLNKMDLPYRCMVRFGEYQFLMEKEDGESLEFFETQFILSPRSLLQENNWPPHRPIPEYGTYSLCSSQSSSPTEMDENES
modifications: phosphorylated by recombinant ALPK1 in the kinase reaction; residues not stated for this experiment
notes: TIFA, human; source: E. coli, purified (Ni column, desalted); phosphorylated in vitro by recombinant ALPK1; not shown: HA, N-terminal, kept
For B1, the binding result in data set [1] is given as “binds”.

B2: Mouse ALPK1 kinase domain aa. 949-1231 (domain or fragment)
chain: not shown
notes: Used for crystallography in complex with the human N-terminal domain (a complex of two species' forms); also called mALPK1-KD; mouse kinase domain; source: E. coli, purified (Ni column; His-tag cleaved with TEV protease)
Regarding B2, the binding result in data set [2] is on record as “binds”.
